{
  "source": "paper doi:10.1101/546648",
  "about": "(bioRxiv, 2019)",
  "biological_target": "the molecule itself",
  "experiment": "crystal structure",
  "data": [
    {"protein": "Homo sapiens REXO2 (enzyme) MAAGESMAQRMVWVDLEMTGLDIEKDQIIEMACLITDSDLNILAEGPNLIIKQPDELLDSMSDWCKEHHGKSGLTKAVKESTITLQQAEYEFLSFVRQQTPPGLCPLAGNSVHEDKKFLDKYMPQFMKHLHYRIIDVSTVKELCRRWYPEEYEFAPKKAASHRALDDISESIKELQFYRNNIFKKKIDEKKRKIIENGENEKTVS", "values": [
      {"measurement": "binding result", "value": "binds"}
    ]}
  ]
}
